Results published in IntAct's records for PubMed 16227972.

B1: Gigaxonin (Homo sapiens), Q9H2C0 (parent)
chain: MAEGSAVSDPQHAARLLRALSSFREESRFCDAHLVLDGEEIPVQKNILAAASPYIRTKLNYNPPKDDGSTYKIELEGISVMVMREILDYIFSGQIRLNEDTIQDVVQAADLLLLTDLKTLCCEFLEGCIAAENCIGIRDFALHYCLHHVHYLATEYLETHFRDVSSTEEFLELSPQKLKEVISLEKLNVGNERYVFEAVIRWIAHDTEIRKVHMKDVMSALWVSGLDSSYLREQMLNEPLVREIVKECSNIPLSQPQQGEAMLANFKPRGYSECIVTVGGEERVSRKPTAAMRCMCPLYDPNRQLWIELAPLSMPRINHGVLSAEGFLFVFGGQDENKQTLSSGEKYDPDANTWTALPPMNEARHNFGIVEIDGMLYILGGEDGEKELISMECYDIYSKTWTKQPDLTMVRKIGCYAAMKKKIYAMGGGSYGKLFESVECYDPRTQQWTAICPLKERRFGAVACGVAMELYVFGGVRSREDAQGSEMVTCKSEFYHDEFKRWIYLNDQNLCIPASSSFVYGAVPIGASIYVIGDLDTGTNYDYVREFKRSTGTWHHTKPLLPSDLRRTGCAALRIANCKLFRLQLQQGLFRIRVHSP

Variants of: B1
Details: with uba1_human UBA1, P22314
Sequence of uba1_human UBA1, P22314 (P22314 whole entry): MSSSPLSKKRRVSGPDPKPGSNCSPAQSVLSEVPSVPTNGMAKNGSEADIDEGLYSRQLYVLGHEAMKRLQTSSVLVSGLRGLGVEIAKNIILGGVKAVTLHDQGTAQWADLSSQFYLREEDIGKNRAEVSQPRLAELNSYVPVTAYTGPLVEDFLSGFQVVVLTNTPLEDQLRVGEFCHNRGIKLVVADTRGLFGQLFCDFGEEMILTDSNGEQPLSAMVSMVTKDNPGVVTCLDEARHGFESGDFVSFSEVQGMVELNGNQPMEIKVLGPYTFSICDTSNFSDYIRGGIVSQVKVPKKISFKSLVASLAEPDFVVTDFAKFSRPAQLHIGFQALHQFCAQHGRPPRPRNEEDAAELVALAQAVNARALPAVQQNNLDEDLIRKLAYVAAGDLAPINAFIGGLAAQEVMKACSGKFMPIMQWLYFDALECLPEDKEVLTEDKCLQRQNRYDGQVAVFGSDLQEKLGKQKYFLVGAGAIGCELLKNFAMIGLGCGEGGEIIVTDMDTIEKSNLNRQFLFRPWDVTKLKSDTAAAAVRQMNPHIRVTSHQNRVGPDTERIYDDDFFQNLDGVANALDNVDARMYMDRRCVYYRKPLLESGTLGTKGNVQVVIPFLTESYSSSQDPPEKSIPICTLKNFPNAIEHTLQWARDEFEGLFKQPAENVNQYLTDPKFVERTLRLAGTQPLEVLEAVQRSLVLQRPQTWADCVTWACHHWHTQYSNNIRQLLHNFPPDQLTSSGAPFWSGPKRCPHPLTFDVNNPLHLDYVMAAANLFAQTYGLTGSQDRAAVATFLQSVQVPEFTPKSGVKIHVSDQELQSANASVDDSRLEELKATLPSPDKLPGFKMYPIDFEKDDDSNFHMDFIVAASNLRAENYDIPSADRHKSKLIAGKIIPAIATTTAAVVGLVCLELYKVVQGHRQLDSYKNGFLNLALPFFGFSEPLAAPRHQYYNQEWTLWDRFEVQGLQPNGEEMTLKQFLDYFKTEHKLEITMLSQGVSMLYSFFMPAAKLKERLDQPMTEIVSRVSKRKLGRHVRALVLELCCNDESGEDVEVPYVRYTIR

Variant	effect of a mutation on the interaction
MAEGSAVSDPQHAARLLRALSSFREESRFCDAHLVLDGEEIPVQKNILAAASPYIRTKLNYNPPKDDGSTYKIELEGISVMFMREILDYIFSGQIRLNEDTIQDVVQAADLLLLTDLKTLCCEFLEGCIAAENCIGIRDFALHYCLHHVHYLATEYLETHFRDVSSTEEFLELSPQKLKEVISLEKLNVGNERYVFEAVIRWIAHDTEIRKVHMKDVMSALWVSGLDSSYLREQMLNEPLVREIVKECSNIPLSQPQQGEAMLANFKPRGYSECIVTVGGEERVSRKPTAAMRCMCPLYDPNRQLWIELAPLSMPRINHGVLSAEGFLFVFGGQDENKQTLSSGEKYDPDANTWTALPPMNEARHNFGIVEIDGMLYILGGEDGEKELISMECYDIYSKTWTKQPDLTMVRKIGCYAAMKKKIYAMGGGSYGKLFESVECYDPRTQQWTAICPLKERRFGAVACGVAMELYVFGGVRSREDAQGSEMVTCKSEFYHDEFKRWIYLNDQNLCIPASSSFVYGAVPIGASIYVIGDLDTGTNYDYVREFKRSTGTWHHTKPLLPSDLRRTGCAALRIANCKLFRLQLQQGLFRIRVHSP [V82F]	decreasing interaction

Variants of: B1
Details: with uba1_rat Uba1, Q5U300
Sequence of uba1_rat Uba1, Q5U300 (Q5U300 whole entry): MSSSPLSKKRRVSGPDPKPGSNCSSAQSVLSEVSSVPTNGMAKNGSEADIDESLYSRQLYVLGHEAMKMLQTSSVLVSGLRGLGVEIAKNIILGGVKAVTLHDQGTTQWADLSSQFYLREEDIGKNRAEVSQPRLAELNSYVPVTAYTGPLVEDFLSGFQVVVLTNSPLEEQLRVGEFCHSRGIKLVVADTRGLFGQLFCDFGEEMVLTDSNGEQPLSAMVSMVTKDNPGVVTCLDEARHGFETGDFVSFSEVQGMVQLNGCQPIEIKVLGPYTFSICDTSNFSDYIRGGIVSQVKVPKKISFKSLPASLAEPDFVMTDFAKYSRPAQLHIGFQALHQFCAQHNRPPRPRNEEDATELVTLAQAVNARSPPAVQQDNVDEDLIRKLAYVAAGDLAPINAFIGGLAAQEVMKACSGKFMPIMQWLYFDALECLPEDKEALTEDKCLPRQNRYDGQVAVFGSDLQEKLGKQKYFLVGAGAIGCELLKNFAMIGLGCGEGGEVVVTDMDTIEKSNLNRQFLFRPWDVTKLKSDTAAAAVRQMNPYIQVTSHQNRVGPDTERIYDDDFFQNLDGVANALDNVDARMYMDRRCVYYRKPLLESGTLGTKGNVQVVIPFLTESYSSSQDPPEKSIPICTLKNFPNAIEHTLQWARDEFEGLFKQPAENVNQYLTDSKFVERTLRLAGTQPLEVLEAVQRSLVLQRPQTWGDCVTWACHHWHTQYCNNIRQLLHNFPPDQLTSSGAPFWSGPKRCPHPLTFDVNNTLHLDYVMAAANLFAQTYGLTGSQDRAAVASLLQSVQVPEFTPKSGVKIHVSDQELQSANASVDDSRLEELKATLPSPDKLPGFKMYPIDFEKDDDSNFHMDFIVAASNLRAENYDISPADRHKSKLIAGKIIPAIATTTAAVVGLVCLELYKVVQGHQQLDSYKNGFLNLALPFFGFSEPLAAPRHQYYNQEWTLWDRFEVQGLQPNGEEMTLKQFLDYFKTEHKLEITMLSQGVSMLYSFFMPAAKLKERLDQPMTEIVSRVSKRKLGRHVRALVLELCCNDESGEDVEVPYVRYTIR

Variant	effect of a mutation on the interaction
MAEGSAVSDPQHAARLLRALSSFREESRFCDAHLVLDGEEIPVQKNILAAASPYIRTKLNYNPPKDDGSTYKIELEGISVMFMREILDYIFSGQIRLNEDTIQDVVQAADLLLLTDLKTLCCEFLEGCIAAENCIGIRDFALHYCLHHVHYLATEYLETHFRDVSSTEEFLELSPQKLKEVISLEKLNVGNERYVFEAVIRWIAHDTEIRKVHMKDVMSALWVSGLDSSYLREQMLNEPLVREIVKECSNIPLSQPQQGEAMLANFKPRGYSECIVTVGGEERVSRKPTAAMRCMCPLYDPNRQLWIELAPLSMPRINHGVLSAEGFLFVFGGQDENKQTLSSGEKYDPDANTWTALPPMNEARHNFGIVEIDGMLYILGGEDGEKELISMECYDIYSKTWTKQPDLTMVRKIGCYAAMKKKIYAMGGGSYGKLFESVECYDPRTQQWTAICPLKERRFGAVACGVAMELYVFGGVRSREDAQGSEMVTCKSEFYHDEFKRWIYLNDQNLCIPASSSFVYGAVPIGASIYVIGDLDTGTNYDYVREFKRSTGTWHHTKPLLPSDLRRTGCAALRIANCKLFRLQLQQGLFRIRVHSP [V82F]	decreasing interaction
